± gives the uncertainty stated by the source.
Assay: abundance fitness (aPCA) (normalised: wild type 0, dead -1); higher = more abundant; growth selection in yeast, the domain comes from the species named
Details: Homo sapiens

Substance | abundance fitness
Lipoamide acyltransferase component of branched-chain alpha-keto acid dehydrogenase complex, mitochondrial P175I, P11182 | -0.133 ± 0.065
Lipoamide acyltransferase component of branched-chain alpha-keto acid dehydrogenase complex, mitochondrial P175K, P11182 | 0.024 ± 0.042
Lipoamide acyltransferase component of branched-chain alpha-keto acid dehydrogenase complex, mitochondrial P175L, P11182 | -0.119 ± 0.056
Lipoamide acyltransferase component of branched-chain alpha-keto acid dehydrogenase complex, mitochondrial P175M, P11182 | -0.051 ± 0.081
Lipoamide acyltransferase component of branched-chain alpha-keto acid dehydrogenase complex, mitochondrial P175N, P11182 | -0.096 ± 0.053
Lipoamide acyltransferase component of branched-chain alpha-keto acid dehydrogenase complex, mitochondrial P175Q, P11182 | -0.008 ± 0.048
Lipoamide acyltransferase component of branched-chain alpha-keto acid dehydrogenase complex, mitochondrial P175R, P11182 | -0.16 ± 0.041
Lipoamide acyltransferase component of branched-chain alpha-keto acid dehydrogenase complex, mitochondrial P175S, P11182 | -0.127 ± 0.044
Lipoamide acyltransferase component of branched-chain alpha-keto acid dehydrogenase complex, mitochondrial P175T, P11182 | -0.016 ± 0.052
Lipoamide acyltransferase component of branched-chain alpha-keto acid dehydrogenase complex, mitochondrial P175V, P11182 | -0.029 ± 0.043
Lipoamide acyltransferase component of branched-chain alpha-keto acid dehydrogenase complex, mitochondrial P175W, P11182 | -0.136 ± 0.042
Lipoamide acyltransferase component of branched-chain alpha-keto acid dehydrogenase complex, mitochondrial P175Y, P11182 | -0.24 ± 0.066
Lipoamide acyltransferase component of branched-chain alpha-keto acid dehydrogenase complex, mitochondrial Q212A, P11182 | 0.006 ± 0.036
Lipoamide acyltransferase component of branched-chain alpha-keto acid dehydrogenase complex, mitochondrial Q212C, P11182 | -0.047 ± 0.052
Lipoamide acyltransferase component of branched-chain alpha-keto acid dehydrogenase complex, mitochondrial Q212D, P11182 | -0.009 ± 0.13
Lipoamide acyltransferase component of branched-chain alpha-keto acid dehydrogenase complex, mitochondrial Q212E, P11182 | 0.02 ± 0.043
Lipoamide acyltransferase component of branched-chain alpha-keto acid dehydrogenase complex, mitochondrial Q212F, P11182 | -0.392 ± 0.11
Lipoamide acyltransferase component of branched-chain alpha-keto acid dehydrogenase complex, mitochondrial Q212G, P11182 | 0.023 ± 0.034
Lipoamide acyltransferase component of branched-chain alpha-keto acid dehydrogenase complex, mitochondrial Q212H, P11182 | 0.011 ± 0.065

— the Human Domainome abundance scans (Beltran et al. 2025)
